# In patent US7026443:
# Target: HLA-A*1101 (human)
# Experiment: competition with 125I-labelled standard peptide for purified HLA-A*1101, gel filtration
row,Binder,binding affinity ratio (IC50 of standard peptide / IC50 of test peptide)
1,GVLILALLR (modifications not checked) [HPV18 E1 position 279 peptide …],0.14
2,ISLNSGQKK (modifications not checked) [HPV18 E1 position 116 peptide …],0.0026

# Target: HLA-A*1101 (human)
# Experiment: not given
Binder,binding affinity ratio (IC50 of standard peptide / IC50 of test peptide),relative binding ratio (IC50 of standard peptide / IC50 of test peptide),relative binding ratio (IC50 of standard peptide / IC50 of test peptide) (ratio to standard peptide)
IAQLKDLLK (modifications not checked) [HPV18 E1 position 198 peptide …],0.0027,,
GLSFTDLVR (modifications not checked) [HPV18 E1 position 223 peptide …],0.0025,,
"ALLRYKCGK (modifications not checked) [HPV45 E1 peptide … (position 270, 9 amino acids)]",,0.14,
"CIDFYSRIR (modifications not checked) [HPV45 E6 peptide … (position 68, 9 amino acids)]",,,0.0001

# Target: HLA-A*1101 (human)
# Experiment: competition with 125I-labeled standard peptide for purified HLA, gel filtration
Binder,relative binding ratio (IC50 of standard peptide / IC50 of test peptide),binding affinity ratio (IC50 of standard peptide / IC50 of test peptide)
"NSNASAFLK (modifications not checked) [HPV16 E1 peptide … (position 386, 9 amino acids)]",0.011,
"QMSMSQWIK (modifications not checked) [HPV16 E1 peptide … (position 419, 9 amino acids)]",0.026,
FITFLGALK (modifications not checked) [HPV18 E1 position 460 peptide …],,0.037
GVLILALLR (modifications not checked) [HPV18 E1 position 279 peptide …],,0.14
IAQLKDLLK (modifications not checked) [HPV18 E1 position 198 peptide …],,0.0027
"MSFLTALKR (modifications not checked) [HPV16 E1 peptide … (position 454, 9 amino acids)]",0.098,
"MMIEPPKLR (modifications not checked) [HPV16 E1 peptide … (position 305, 9 amino acids)]",0.0086,
"RLKAICIEK (modifications not checked) [HPV16 E1 peptide … (position 109, 9 amino acids)]",0.051,
GLSFTDLVR (modifications not checked) [HPV18 E1 position 223 peptide …],,0.0025
"TAQEAKQHR (modifications not checked) [HPV16 E1 peptide … (position 72, 9 amino acids)]",0.0025,
"LVSMDVKHR (modifications not checked) [HPV16 E1 peptide … (position 544, 9 amino acids)]",0.0089,
ALLRYKCGK (modifications not checked) [HPV18 E1 position 284 peptide …],,0.14
"LVRPFKSNK (modifications not checked) [HPV16 E1 peptide … (position 222, 9 amino acids)]",1.8,
"SVICFVNSK (modifications not checked) [HPV16 E1 peptide … (position 497, 9 amino acids)]",0.0002,
ATMCKHYRR (modifications not checked) [HPV18 E1 position 413 peptide …],,0.28
ISLNSGQKK (modifications not checked) [HPV18 E1 position 116 peptide …],,0.0026
"SMSQWIKYR (modifications not checked) [HPV16 E1 peptide … (position 421, 9 amino acids)]",0.028,
CATMCKHYR (modifications not checked) [HPV18 E1 position 412 peptide …],,0.011
"SLFGMSLMK (modifications not checked) [HPV16 E1 peptide … (position 484, 9 amino acids)]",7.1,

# Target: HLA-A*0301 (human)
# Experiment: as above
Binder,relative binding ratio (IC50 of standard peptide / IC50 of test peptide),binding affinity ratio (IC50 of standard peptide / IC50 of test peptide)
"NSNASAFLK (modifications not checked) [HPV16 E1 peptide … (position 386, 9 amino acids)]",0.0005,
"QMSMSQWIK (modifications not checked) [HPV16 E1 peptide … (position 419, 9 amino acids)]",0.0023,
"TAAALYWYK (modifications not checked) [HPV16 E1 peptide … (position 315, 9 amino acids)]",0.78,
FITFLGALK (modifications not checked) [HPV18 E1 position 460 peptide …],,0.032
GVLILALLR (modifications not checked) [HPV18 E1 position 279 peptide …],,0.0058
IAQLKDLLK (modifications not checked) [HPV18 E1 position 198 peptide …],,0.0003
"MSFLTALKR (modifications not checked) [HPV16 E1 peptide … (position 454, 9 amino acids)]",0.087,
"MMIEPPKLR (modifications not checked) [HPV16 E1 peptide … (position 305, 9 amino acids)]",0.001,
"RLKAICIEK (modifications not checked) [HPV16 E1 peptide … (position 109, 9 amino acids)]",0.084,
GLSFTDLVR (modifications not checked) [HPV18 E1 position 223 peptide …],,0.0009
"TAQEAKQHR (modifications not checked) [HPV16 E1 peptide … (position 72, 9 amino acids)]",0.0005,
"LVSMDVKHR (modifications not checked) [HPV16 E1 peptide … (position 544, 9 amino acids)]",0.0005,
ALLRYKCGK (modifications not checked) [HPV18 E1 position 284 peptide …],,0.09
"LVRPFKSNK (modifications not checked) [HPV16 E1 peptide … (position 222, 9 amino acids)]",0.07,
"SVICFVNSK (modifications not checked) [HPV16 E1 peptide … (position 497, 9 amino acids)]",0.0005,
ISLNSGQKK (modifications not checked) [HPV18 E1 position 116 peptide …],,0.0003
"SMSQWIKYR (modifications not checked) [HPV16 E1 peptide … (position 421, 9 amino acids)]",0.69,
CATMCKHYR (modifications not checked) [HPV18 E1 position 412 peptide …],,0.0012
"SLFGMSLMK (modifications not checked) [HPV16 E1 peptide … (position 484, 9 amino acids)]",0.72,

# Target: HLA-A*0201 (human)
# Experiment: competition with 125I-labelled standard peptide for purified HLA-A*0201, gel filtration
row,Binder,relative binding ratio (IC50 of standard peptide / IC50 of test peptide)
1,GLTPSIADSI (modifications not checked) [HPV16 E1 242 peptide …],0.0002
2,IAAFGLTPSI (modifications not checked) [HPV16 E1 238 peptide …],0.0002
3,GTGCNGWFYV (modifications not checked) [HPV16 E1 12 peptide …],0.0006
4,GAANTGKSL (modifications not checked) [HPV16 E1 477 peptide …],0.0003
5,AAFGLTPSI (modifications not checked) [HPV16 E1 … (position 239)],0.0012
6,FLQGSVICFV (modifications not checked) [HPV16 E1 493 peptide …],0.23
7,EIDGVNHQHL (modifications not checked) [HPV18 E7 peptide … (position 40)],0.0001
8,CTFELSQMV (modifications not checked) [HPV16 E1 … (position 353)],0.0029
9,DLRAFQQLFL (modifications not checked) [HPV18 E7 peptide … (position 82)],0.001

# Target: HLA-A*0301 (human)
# Experiment: not given
Binder,binding affinity ratio (IC50 of the standard peptide / IC50 of the test peptide),binding affinity ratio relative to the standard peptide (IC50 standard / IC50 test),relative binding ratio (IC50 of standard peptide / IC50 of test peptide) (ratio to standard peptide),binding affinity ratio (IC50 of standard peptide / IC50 of test peptide)
"NSNASAFLK (modifications not checked) [HPV16 E1 peptide … (position 386, 9 amino acids)]",0.0005,,,
"QMSMSQWIK (modifications not checked) [HPV16 E1 peptide … (position 419, 9 amino acids)]",0.0023,,,
"FMSFLTALK (modifications not checked) [HPV16 E1 peptide … (position 453, 9 amino acids)]",,0.13,,
"ATMCRHYKR (modifications not checked) [HPV16 E1 peptide … (position 406, 9 amino acids)]",,,0.066,
"ALFTAQEAK (modifications not checked) [HPV16 E1 peptide … (position 69, 9 amino acids)]",,,0.24,
"CIDFYSRIR (modifications not checked) [HPV45 E6 peptide … (position 68, 9 amino acids)]",,,,0.001

# Target: HLA-A*1101 (human)
# Experiment: not given
# Remark: another data set of the same source
Binder,binding affinity ratio (IC50 of standard peptide / IC50 of test peptide),binding affinity ratio (IC50 of standard peptide / IC50 of test peptide) (ratio relative to standard peptide),relative binding ratio (IC50 of standard peptide / IC50 of test peptide),relative binding ratio (IC50 of standard peptide / IC50 of test peptide) (ratio to standard peptide)
"FMSFLTALK (modifications not checked) [HPV16 E1 peptide … (position 453, 9 amino acids)]",0.21,,,
LVRNFKSDK (modifications not checked) [HPV18 E1 position 229 peptide …],0.0002,,,
SVAALYWYR (modifications not checked) [HPV18 E1 position 322 peptide …],8.8,,,
NSNAAAFLK (modifications not checked) [HPV33 E1 379 peptide … (SEQ ID NO: 10558)],,0.37,,
"GVSFSELVR (modifications not checked) [HPV16 E1 peptide … (position 216, 9 amino acids)]",0.018,,,
QMNMSQWIR (modifications not checked) [HPV18 E1 position 426 peptide …],0.0023,,,
"ALLRYKCGK (modifications not checked) [HPV45 E1 peptide … (position 270, 9 amino acids)]",,,0.14,
"SVAALYWYR (modifications not checked) [HPV45 E1 peptide … (position 308, 9 amino acids)]",,,8.8,
"ATMCRHYKR (modifications not checked) [HPV16 E1 peptide … (position 406, 9 amino acids)]",1.5,,,
"LLVRYKCGK (modifications not checked) [HPV16 E1 peptide … (position 277, 9 amino acids)]",0.0033,,,
NSNAAAFLK (modifications not checked) [HPV18 E1 position 393 peptide …],0.37,,,
MLIQPPKLR (modifications not checked) [HPV18 E1 position 312 peptide …],0.0014,,,
"ALFTAQEAK (modifications not checked) [HPV16 E1 peptide … (position 69, 9 amino acids)]",0.4,,,
NMSQWIRFR (modifications not checked) [HPV18 E1 position 428 peptide …],0.0012,,,
"CIDFYSRIR (modifications not checked) [HPV45 E6 peptide … (position 68, 9 amino acids)]",,,,0.0001

# Target: HLA-A*0301 (human)
# Experiment: not given
# Remark: another data set of the same source
Binder,binding affinity ratio (IC50 of standard peptide / IC50 of test peptide),binding affinity ratio (IC50 of standard peptide / IC50 of test peptide) (ratio relative to standard peptide),relative binding ratio (IC50 of standard peptide / IC50 of test peptide),relative binding ratio (IC50 of standard peptide / IC50 of test peptide) (ratio to standard peptide)
"FMSFLTALK (modifications not checked) [HPV16 E1 peptide … (position 453, 9 amino acids)]",0.13,,,
LVRNFKSDK (modifications not checked) [HPV18 E1 position 229 peptide …],0.0005,,,
SVAALYWYR (modifications not checked) [HPV18 E1 position 322 peptide …],2.9,,,
NSNAAAFLK (modifications not checked) [HPV33 E1 379 peptide … (SEQ ID NO: 10558)],,0.0057,,
"GVSFSELVR (modifications not checked) [HPV16 E1 peptide … (position 216, 9 amino acids)]",0.0011,,,
QMNMSQWIR (modifications not checked) [HPV18 E1 position 426 peptide …],0.0011,,,
"ALLRYKCGK (modifications not checked) [HPV45 E1 peptide … (position 270, 9 amino acids)]",,,0.09,
"SVAALYWYR (modifications not checked) [HPV45 E1 peptide … (position 308, 9 amino acids)]",,,2.9,
"ATMCRHYKR (modifications not checked) [HPV16 E1 peptide … (position 406, 9 amino acids)]",0.066,,,
"LLVRYKCGK (modifications not checked) [HPV16 E1 peptide … (position 277, 9 amino acids)]",0.0043,,,
"FLKSNSQAK (modifications not checked) [HPV31 E1 peptide … (position 372, 9 amino acids)]",,,,0.0013
NSNAAAFLK (modifications not checked) [HPV18 E1 position 393 peptide …],0.0057,,,
MLIQPPKLR (modifications not checked) [HPV18 E1 position 312 peptide …],0.0005,,,
"FLKSNSQAK (modifications not checked) [HPV33 E1 385 peptide … (A03 supermotif peptide, 9 amino acids)]",,,0.0013,
"ALFTAQEAK (modifications not checked) [HPV16 E1 peptide … (position 69, 9 amino acids)]",0.24,,,
NMSQWIRFR (modifications not checked) [HPV18 E1 position 428 peptide …],0.054,,,
"CIDFYSRIR (modifications not checked) [HPV45 E6 peptide … (position 68, 9 amino acids)]",,,,0.0001
